In the supplement of paper PMC9170038:

System: K4 kissing-loop RNA reporter
Test: apparent KD of K4 kissing-loop reporter; higher = weaker reporter binding
Settings: Eterna round: R107
Procedure: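 RNA-MaP round R107: designed RNA switches with theophylline, tryptophan, arginine or FMN aptamers are transcribed on-chip within common flanks. They are titrated with a labelled K4 kissing-loop RNA reporter in RNA-MaP buffer (100 mM Tris pH 7.5, 80 mM KCl, 4 mM MgCl2), without ligand or with the indicated ligand. Median apparent KD per design.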

[1] = input ligand: theophylline 20 uM
[2] = input ligand: tryptophan 2.4 mM
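Note: bound reporter read as fluorescence of individual clusters on recovered sequencing chips by microscopy, with normalized cluster intensities fitted with a binding model.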

Sequence	apparent KD of K4 kissing-loop reporter (input ligand: FMN 200 uM)	apparent KD of K4 kissing-loop reporter (input ligand: arginine 13.2 mM)	apparent KD of K4 kissing-loop reporter (input ligand: none)	apparent KD of K4 kissing-loop reporter [1]	apparent KD of K4 kissing-loop reporter [2]
AUUCUGUUUUUGAUGUUUUUUGUAUAAUGGCAGGAUAUCGUAGAAGCGAGAAGGGCUUUUAUGCGUUAUGAGUGAUGUUUGUAGG [ttytewvmullin]	298 nM	222 nM	271 nM	275 nM	227 nM
CCUAGUCGGAUACUCAAUCCAAUGCGAGAUACCAGCGGUCUUACGCGCCCUUGGCAGCUCAUAAUGAUGAACCAGUGAUGUUGGG [theeternabot_sameState_KL_Theo_A_40]	423 nM	268 nM	397 nM	446 nM	368 nM
CCCAAAAUAUGCAGUGAUGUUGCAACCGAUACCAGUAUCGAAAGAUACCCUUGGCAGCGGAAAACCGCUACGUAAUUUAAAAGGG [Ex Theophylline A K4 17]	308 nM	318 nM	311 nM	603 nM	254 nM
AAAUGCAGCAAACGAGUGAUGUUCGACGAUACCAGCCUCGAUAGAGGCCCUUGGCAGCGUACAUCAAAGCCAAGGGCUGCUAAAA [#SwitchBubble 3]	483 nM	463 nM	552 nM	499 nM	454 nM
AGUAUUGAGUCGGCCGCCACUGGUUUAAUGAGUGUCAAUUCUGGAUCAAAGUGAUGUUUUGGAGCUAGGACCGGGACCAUUGUUA [#07 K4 Tryptophan B Exclusion]	446 nM	360 nM	433 nM	360 nM	479 nM
UCUGAAGGUGGAGGAUAUUGAUUGAAUCUUGGUCAGGAGUGAUGUUCCGGGAAGCCUUGGAUUCAUCGAGAAGGCCAAGGAUAGU [#10 K4 FMN B Same State]	144 nM	259 nM	243 nM	306 nM	225 nM
CGUACGGUUUCUUUCUUUCCGUACGAGUGCCGAGGACCGGUACGGCCGCCACUCGCUACAGCCUAGUGAUGUUAGGCAUUUCUUU	104 nM	110 nM	105 nM	146 nM	94.1 nM
CAUACUAUCAGAAGGAGCGUGGAAUAUUCAUCUGUAUCUAAUACGAGUGAUGUUCGUAAUUCACAGGUAGGUCGCUGAUUAAUAC [whbob_Ex_Arginine_B_2th159]	265 nM	272 nM	267 nM	269 nM	219 nM
CAAUGAGUAUAAGAUGAUAUCAUCACAGAAGGAGCGAGUGAUAACUCAGGUAGGUCGCUGAAUUUAUCGAGUGAUGUUCGAUAGA [whbob_SS_Arginine_A_sa118]	207 nM	158 nM	199 nM	175 nM	170 nM
CCUAUCUGUUACGAUACCAGUCAAAGAUAUUUUAUCAAUGCCCUCACCGAGUGAUGUUCGGACCCUUGGCAGCGUCUGGGAUAGG [pnnbmullin]	187 nM	138 nM	185 nM	119 nM	150 nM
AGUAGUUGGACGGCCGCCACUAGAACAGCUUUGCCAAAGGCAGAGCACUAGAGUGAUGUUCUAGCUAGGACCGGGUCCAACUACA [Omei KL Tryp B SS A v1]	902 nM	306 nM	54.2 nM	118 nM	1000 nM
AAGGUCACUACUACAGUGAUGUUGUAGGAGCAGGAUAUGCAGAAAUGCAGAAGGGCUCGCUCCAGGUGACCGAAUGAAACAUUCA [Omei KL FMN A SS A v3]	333 nM	504 nM	573 nM	475 nM	501 nM
UUCGAUCAGUGAUGUUGAUCAUCAGUCGAAGGAGCGCUAGAGAUAGCAGGUAGGUCGCGACUGCAAGGUGUGAGAACACCUCGAA [Arg A SS t9a]	457 nM	358 nM	487 nM	444 nM	255 nM
AAUAACUAGUAUAUUUGUAAUAAAACAGAUACCAGUGAUAAUAAACACCCUUGGCAGCUGAUCGAGUGAUGUUCGUUUAUUUUAA [JR_SSTheophyA_Sub004]	102 nM	96.5 nM	124 nM	130 nM	78.5 nM
UUAGAGGCCCAGUGAUGUUGGGUGGUUGGGCGAGGACCGGUACGGCCGCCACUCGCCGCGGAACUAUCGGAAUCUCGCUCGGCUA [Aninxearqu]	277 nM	233 nM	239 nM	309 nM	256 nM
UUUAACGAGUGAUGUUCGAAGAGUAAUGGUGAGGAUAUCGAUUUUUCGAGAAGGCGCCUCGAAGUGAUACGAAAGUAUCGCUUCG [FMN A 6]	239 nM	247 nM	286 nM	253 nM	255 nM

Sequence	apparent KD of K4 kissing-loop reporter (input ligand: FMN 200 uM)	apparent KD of K4 kissing-loop reporter (input ligand: arginine 13.2 mM)	apparent KD of K4 kissing-loop reporter (input ligand: none)	apparent KD of K4 kissing-loop reporter [1]	apparent KD of K4 kissing-loop reporter [2]
AUUCAUUUCAGAGGAUAUCGAUGGAGAGUGAUGUUCUCCCAUAGCCAGUGAUGUUGGCUAGCUAUUCGAGAAGGCUGUGGGUGGA [Same State FMN B GF 27]	141 nM	227 nM	210 nM	202 nM	208 nM
AGUGAUAUAUGAGGAUAUGGGUUAAUUAGUGAGUGAUUUUUAGUGUUGUUUGAUUAGUGAUGUUAUUUAGAAGGCGUGAGUGAUG [mvvmjmullin]	123 nM	106 nM	81.9 nM	144 nM	79.4 nM
AGACUACUGAUAGGAUAUAACAUCCUAGUCGUAUACCGAAAGGUAUACGAUAUCCUUCUAGUGAUGUUAGAAGGGUCGGUAGUCA [Omei KL FMN B Exc B v10]	113 nM	85.5 nM	103 nM	88.3 nM	98.4 nM
AGCUCAGAGUGACUCGAUAAGAGUCACAAACGAGGACCGGUACGGCCGCCACUCGAAAUAACGAGAGUGAUGUUCUCGCUGGGCA [FiskerMod 1 - Jieux - Same State Tryptophan A]	829 nM	463 nM	1010 nM	540 nM	296 nM
GGGCCGCGCGCGGCCGCCACUCAGUGAUGUUGGGUGAGCUUUGCUGUGCGUGCUGUUUCGUGACGGAGGACCGGGCGCGCGGCCU [BDazzled 2]	129 nM	93.6 nM	121 nM	113 nM	215 nM
AACCGCCAGUCGGCCGCCACUCACAGCAGUGAUGUUGCUGAAAAUCUAAAAGAGUGAUGUUCUUAGAGGACCGGGACUCCAGGCG [Same State Tryptophan B GF 5]	260 nM	76.9 nM	218 nM	56.7 nM	145 nM
CGGCUCACGCAAGGAUAUCGCAGUGAGUACUCUGGAAGAAUAAAGCUAGUGAUGUUAGGUUAGAAGCGAGAAGGUGCGGCCGUAU [theeternabot_sameState_KL_FMN_B_30]	126 nM	96.5 nM	128 nM	197 nM	137 nM
GGAGGGAUCUCGGCCGCCACUCAUAAGAAAUGAACCUAAGAAAUAUAGUGAUGUUAUAUAAAGAAGAGGACCGGGAGAAAGGAGG [ExTryptoB.A]	148 nM	171 nM	197 nM	555 nM	171 nM
GGCCGGUUGAAAGGCCGGCCAGAAACCGAAGGAGCGCGAAGAAACGCAGGUAGGUCGCGGAAAACAUGACCAGUGAUGUUGGUCG	152 nM	173 nM	154 nM	152 nM	144 nM
AGGCGCUUAAGUCAGUGAUGUUGAUUAUAUCGAGGACCGGUACGGCCGCCACUCGGCUUUCAUCCGCCAUCGUAGUCCUAAAACC [theeternabot_sameState_KL_Trp_A_25]	498 nM	490 nM	559 nM	534 nM	549 nM
GUAGGAUGAGGAGGAGGAAGAAAUACUGAAGGAGCGCAAAGAAAUGCAGGUAGGUCGCGGUAAAGAAGUAUAGUGAUGUUAUAUA [SSArgA.C]	452 nM	450 nM	406 nM	411 nM	373 nM
AGACUACUGAUAGGAUAUAACAUACUACUCGUAUACCGAAAGGUAUACGAGACCCUUCUAGUGAUGUUAGAAGGGUCGGUAGUCA [Omei KL FMN B Exc B v8]	87.5 nM	70.1 nM	68.1 nM	68.6 nM	74.7 nM
GUAUCGCUAGGAGGAUAUUUCAAUUCGCCUAUAAAAGGUGAUACGGAGUGAUGUUCCGAUUUACGGAAAGAAGGCCUAGUGAUAC [FMN B 9]	137 nM	259 nM	282 nM	262 nM	273 nM
UGACUGGACUGAAGGAGCGGGAAACUCCUAGUGAUGUUAGGAAUACGAGACAAAGUCUCGACCCAGGUAGGUCGCAGUCUAGUCU [ArgBS 17 #SwitchBubble #StaticStem]	121 nM	93.3 nM	108 nM	116 nM	119 nM
AAAAUAAACCAGUGAUGUUGGUAGCCAGAUACCAGCGACGAAAGUCGCCCUUGGCAGCUGUGGACGUACAAAAUAAGUACGUCCU	248 nM	232 nM	268 nM	238 nM	230 nM
AAGGUAUCACCAACUUGCAACAAAGGUGAUACCAGCAUCGAAAGAUGCCCUUGGCAGCACCAACUUGCAGUGAUGUUGCAAGUAA [(T)'-(H)'-(T1)-(T2)-(H1)-(H2)_Design10]	170 nM	161 nM	159 nM	186 nM	170 nM
